Laboratory results taken from article PMC5549332 (BMC Plant Biology, 2017).

T1: GLO4 (Oryza sativa, UniProt Q6YT73)
T1 construct: gene GLO5; complete ORF, N-terminal 6xHis tag kept, expressed in Saccharomyces cerevisiae INVSc1, Ni-IDA purified, subunit about 40 kDa, homo-oligomer; GLO4/GLO5 names may be swapped in databases, go by printed locus
T1 sequence (Q6YT73 1-369): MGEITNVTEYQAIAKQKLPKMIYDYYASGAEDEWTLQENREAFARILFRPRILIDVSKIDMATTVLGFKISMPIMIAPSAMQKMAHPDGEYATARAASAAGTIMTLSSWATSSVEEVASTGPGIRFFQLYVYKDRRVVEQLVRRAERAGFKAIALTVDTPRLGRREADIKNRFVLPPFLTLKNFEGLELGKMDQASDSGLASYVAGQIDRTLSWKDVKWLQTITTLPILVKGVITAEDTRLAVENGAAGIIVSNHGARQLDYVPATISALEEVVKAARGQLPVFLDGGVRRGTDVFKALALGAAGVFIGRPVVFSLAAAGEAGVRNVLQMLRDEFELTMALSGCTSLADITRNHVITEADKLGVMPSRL

T2: GLO3 (Oryza sativa, UniProt Q7FAS1)
T2 construct: complete ORF, N-terminal 6xHis tag kept, expressed in Saccharomyces cerevisiae INVSc1, Ni-IDA purified, subunit about 40 kDa
T2 sequence (Q7FAS1 1-367): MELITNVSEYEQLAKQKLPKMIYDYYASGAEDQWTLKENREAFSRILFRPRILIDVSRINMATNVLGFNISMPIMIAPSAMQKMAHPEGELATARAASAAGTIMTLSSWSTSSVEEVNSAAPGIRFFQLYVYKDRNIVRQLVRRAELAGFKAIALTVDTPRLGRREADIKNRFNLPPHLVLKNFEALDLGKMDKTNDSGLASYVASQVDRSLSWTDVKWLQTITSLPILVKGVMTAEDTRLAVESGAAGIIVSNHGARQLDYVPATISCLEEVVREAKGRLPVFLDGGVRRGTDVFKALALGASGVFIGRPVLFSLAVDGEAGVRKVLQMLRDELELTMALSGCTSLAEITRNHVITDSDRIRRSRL

T3: GLO1 (Oryza sativa, UniProt Q10CE4)
T3 construct: complete ORF, N-terminal 6xHis tag kept, expressed in Saccharomyces cerevisiae INVSc1, Ni-IDA purified, subunit about 40 kDa, homo-oligomer
T3 sequence (Q10CE4 1-369): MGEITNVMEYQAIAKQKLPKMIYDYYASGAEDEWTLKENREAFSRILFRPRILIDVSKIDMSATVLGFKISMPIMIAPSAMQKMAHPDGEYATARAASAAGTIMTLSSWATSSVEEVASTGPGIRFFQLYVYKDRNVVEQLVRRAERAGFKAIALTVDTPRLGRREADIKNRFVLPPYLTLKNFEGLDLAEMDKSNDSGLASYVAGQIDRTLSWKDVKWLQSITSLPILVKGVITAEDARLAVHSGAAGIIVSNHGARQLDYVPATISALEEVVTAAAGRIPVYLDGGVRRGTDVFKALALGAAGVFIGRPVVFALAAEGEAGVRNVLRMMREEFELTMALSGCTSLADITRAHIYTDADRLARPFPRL

T4: GLO1 + 4 (Oryza sativa, UniProt Q10CE4+Q6YT73)
T4 construct: co-expressed N-terminally 6xHis-tagged GLO1 (pYES3) and GLO4 (pYES2) in Saccharomyces cerevisiae, Ni-IDA purified; GLO4/GLO5 names may be swapped in databases
T4 sequence (Q10CE4 1-369): T3 sequence (Q10CE4 1-369)
T4 sequence (Q6YT73 1-369): T1 sequence (Q6YT73 1-369)

B1: GLO1 (Oryza sativa Japonica Group) (protein)
chain: T3 sequence (Q10CE4 1-369)
notes: complete ORF, N-terminal 6xHis tag kept, expressed in Saccharomyces cerevisiae INVSc1, Ni-IDA purified, subunit about 40 kDa, homo-oligomer
B2: GLO3 (Oryza sativa Japonica Group) (protein)
chain: T2 sequence (Q7FAS1 1-367)
notes: complete ORF, N-terminal 6xHis tag kept, expressed in Saccharomyces cerevisiae INVSc1, Ni-IDA purified, subunit about 40 kDa
B3: GLO4 (Oryza sativa Japonica Group) (protein)
chain: T1 sequence (Q6YT73 1-369)
notes: complete ORF, N-terminal 6xHis tag kept, expressed in Saccharomyces cerevisiae INVSc1, Ni-IDA purified, subunit about 40 kDa, homo-oligomer; GLO4/GLO5 names may be swapped in databases, go by printed locus
B4: GLO1 + 4 (Oryza sativa Japonica Group) (protein)
chain 1: T3 sequence (Q10CE4 1-369)
chain 2: T1 sequence (Q6YT73 1-369)
notes: co-expressed N-terminally 6xHis-tagged GLO1 (pYES3) and GLO4 (pYES2) in Saccharomyces cerevisiae, Ni-IDA purified; GLO4/GLO5 names may be swapped in databases

Tests used:
[1] = biological target: T1, GLO4; assay: peroxidase-coupled H2O2 assay, […] nm; slope replot of Lineweaver-Burk; type: biochemical
[2] = biological target: T2, GLO3; assay: as above; type: biochemical
[3] = biological target: T3, GLO1; assay: as above; type: biochemical
[4] = biological target: T4, GLO1 + 4; assay: as above; type: biochemical
[5] = substrate: C[C@H](O)C(=O)O; assay: purified protein; details: pH 7.8, 30 °C, 0.1 mM FMN
[6] = substrate: O=C(O)CO; assay: purified protein; details: pH 7.8, 30 °C, 0.1 mM FMN
[7] = substrate: O=C(O)[C@H](O)CO; assay: purified protein; type: biochemical, Oryza sativa; details: pH 7.8, 30 °C, 0.1 mM FMN
[8] = substrate: O=CC(=O)O; assay: purified protein; type: biochemical, Oryza sativa; details: pH 7.8, 30 °C, 0.1 mM FMN

Row | Molecule | Ki [1] [mM] | Ki [2] [mM] | Ki [3] [mM] | Ki [4] [mM] | Km [5] [mM] | Km [6] [mM] | Km [7] [mM] | Km [8] [mM]
1 | O=C(O)C(=O)O [oxalate] | 6.34 ± 1.74 | 5.6 ± 1.23 | 4.57 ± 0.93 | 5.49 ± 1.04 |  |  |  | 
2 | B1 |  |  |  |  | 5.128 ± 0.315 | 0.499 ± 0.041 | 4.976 ± 0.305 | 6.505 ± 0.412
3 | B2 |  |  |  |  | 1.104 ± 0.056 | 0.470 ± 0.035 | 2.762 ± 0.311 | 1.799 ± 0.084
4 | B3 |  |  |  |  | 4.720 ± 0.291 | 0.613 ± 0.050 | 4.367 ± 0.395 | 5.983 ± 0.333
5 | B4 |  |  |  |  | 5.227 ± 0.448 | 0.423 ± 0.038 | 4.511 ± 0.307 | 4.883 ± 0.321
